Measured values from the supplement of paper PMC10724198.
± gives the standard deviation of the averaged measurements.

Tests used:
Saccharomyces cerevisiae [1] = experiment: protein stability index of tFT-peptide fusion (C-terminal peptide) (PSI (0-1 scale)); higher = more stable (slower turnover); details: genetic background: wild type; temperature: 30 C
Saccharomyces cerevisiae [2] = experiment: as above
Procedure: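 MPS profiling in S. cerevisiae of the tFT-X12 degron library: putative degron peptides plus stable controls, 12 aa, fused to the C-terminus of a sfGFP-mCherry timer. Cells are FACS-sorted into 8 mCherry/sfGFP bins and deep-sequenced. PSI runs from 0 (unstable) to 1 (stable). Backgrounds are wild type, das1Δ and doa10Δ at 30 °C, and wild type, das1Δ, cdc34-1 and cdc53-1 at 37 °C; 2-3 technical replicates each.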

[3] = genetic background: cdc34-1, temperature: 37 C
[4] = genetic background: cdc53-1, temperature: 37 C
[5] = genetic background: das1 deletion, temperature: 30 C
[6] = genetic background: das1 deletion, temperature: 37 C
[7] = genetic background: doa10 deletion, temperature: 30 C
[8] = genetic background: wild type, temperature: 30 C
[9] = genetic background: wild type, temperature: 37 C
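Note: PSI is a weighted mean of sequencing reads over stability bins, variants kept only with over 10 reads, mCherry proximal and sfGFP distal, peptide attached via GGGS linker.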

Row | Sequence | protein stability index (Saccharomyces cerevisiae [1]) | protein stability index (Saccharomyces cerevisiae [2]; [3]) | protein stability index (Saccharomyces cerevisiae [2]; [4]) | protein stability index (Saccharomyces cerevisiae [2]; [5]) | protein stability index (Saccharomyces cerevisiae [2]; [6]) | protein stability index (Saccharomyces cerevisiae [2]; [7]) | protein stability index (Saccharomyces cerevisiae [2]; [8]) | protein stability index (Saccharomyces cerevisiae [2]; [9])
1 | RPIFAYRPLRFL | 0.342 ± 0.053 | 0.656 ± 0.047 | 0.757 ± 0.001 | 0.654 ± 0.014 | 0.763 ± 0.023 | 0.212 ± 0.0076 | 0.231 ± 0.04 | 0.503 ± 0.015
2 | RPNTFRTRAKAL | 0.274 ± 0.081 | 0.636 ± 0.013 | 0.712 ± 0.019 | 0.619 ± 0.026 | 0.734 ± 0.017 | 0.145 ± 0.003 | 0.168 ± 0.039 | 0.333 ± 0.057
3 | RRFKKTEIIKNN | 0.247 ± 0.004 | 0.625 ± 0.024 | 0.765 ± 0.048 | 0.653 ± 0.022 | 0.7804 ± 0.0062 | 0.1324 ± 0.00038 | 0.143 ± 0.053 | 0.29 ± 0.048
4 | RRVPVHIHFSLF | 0.291 ± 0.03 | 0.627 ± 0.0066 | 0.707 ± 0.028 | 0.691 ± 0.014 | 0.732 ± 0.039 | 0.156 ± 0.0052 | 0.194 ± 0.021 | 0.393 ± 0.033
5 | RSKKIFLTKKYS | 0.281 ± 0.075 | 0.608 ± 0.053 | 0.734 ± 0.042 | 0.64 ± 0.035 | 0.701 ± 0.018 | 0.162 ± 0.0021 | 0.202 ± 0.025 | 0.395 ± 0.044
6 | RSPIRYPPVVLS | 0.518 ± 0.07 | 0.698 ± 0.038 | 0.753 ± 0.011 | 0.645 ± 0.021 | 0.7493 ± 0.0034 | 0.539 ± 0.021 | 0.539 ± 0.008 | 0.6895 ± 0.0015
7 | RSPVVVFAVLLF | 0.423 ± 0.018 | 0.438 ± 0.072 | 0.481 ± 0.034 | 0.341 ± 0.036 | 0.524 ± 0.016 | 0.35 ± 0.037 | 0.35 ± 0.029 | 0.505 ± 0.0057
8 | RSRCVRAAVKVG | 0.324 ± 0.0059 | 0.612 ± 0.036 | 0.659 ± 0.025 | 0.569 ± 0.043 | 0.70656 ± 0.00048 | 0.177 ± 0.0018 | 0.216 ± 0.023 | 0.427 ± 0.026
9 | RSRRNRYSRKIA | 0.184 ± 0.013 | 0.506 ± 0.024 | 0.659 ± 0.031 | 0.696 ± 0.043 | 0.6959 ± 0.0048 | 0.0765 ± 0.034 | 0.0787 ± 0.024 | 0.141 ± 0.03
10 | RSWLCFIVFGLF | 0.313 ± 0.011 | 0.368 ± 0.027 | 0.413 ± 0.03 | 0.317 ± 0.03 | 0.485 ± 0.015 | 0.238 ± 0.0067 | 0.234 ± 0.014 | 0.347 ± 0.011
11 | RTSRPVRLFRIH | 0.402 ± 0.06 | 0.753 ± 0.031 | 0.83846 ± 4.9e-05 | 0.656 ± 0.022 | 0.78 ± 0.009 | 0.26 ± 0.051 | 0.279 ± 0.046 | 0.448 ± 0.0097
12 | RVCWLRAFGFLV | 0.305 ± 0.028 | 0.666 ± 0.033 | 0.718 ± 0.019 | 0.587 ± 0.022 | 0.724 ± 0.024 | 0.258 ± 0.015 | 0.29 ± 0.051 | 0.57118 ± 0.00039
13 | RVGALLAVTCPA | 0.446 ± 0.0093 | 0.435 ± 0.035 | 0.47214 ± 0.00033 | 0.308 ± 0.025 | 0.5127 ± 0.0033 | 0.262 ± 0.0067 | 0.302 ± 0.036 | 0.4766 ± 0.0026
14 | RVLILCLFFRWS | 0.347 ± 0.18 | 0.2532 ± 0.00072 | 0.404 ± 0.0096 | 0.274 ± 0.033 | 0.435 ± 0.0084 | 0.257 ± 0.0049 | 0.279 ± 0.029 | 0.397 ± 0.016
15 | RVVILFVFLVYV | 0.3235 ± 0.0031 | 0.269 ± 0.013 | 0.342 ± 0.0015 | 0.258 ± 0.037 | 0.376 ± 0.0065 | 0.2526 ± 0.0011 | 0.25 ± 0.018 | 0.365 ± 0.014
16 | RWCLWGTRVWVS | 0.147 ± 0.028 | 0.439 ± 0.04 | 0.522 ± 0.037 | 0.444 ± 0.021 | 0.591 ± 0.029 | 0.103 ± 0.0031 | 0.111 ± 0.022 | 0.153 ± 0.03
17 | RWELASKCRLCV | 0.296 ± 0.04 | 0.563 ± 0.0077 | 0.6716 ± 0.0053 | 0.563 ± 0.021 | 0.7123 ± 0.0068 | 0.148 ± 0.011 | 0.16 ± 0.029 | 0.304 ± 0.061
18 | RWRDGVAWVVVC | 0.143 ± 0.025 | 0.254 ± 0.011 | 0.314 ± 0.024 | 0.289 ± 0.032 | 0.452 ± 0.0084 | 0.0897 ± 0.019 | 0.098 ± 0.0042 | 0.0954 ± 0.0098
19 | SAWGQAFWCQMG | 0.4071 ± 0.00098 | 0.712 ± 0.027 | 0.7859 ± 0.0057 | 0.648 ± 0.019 | 0.764 ± 0.016 | 0.233 ± 0.016 | 0.265 ± 0.014 | 0.555 ± 0.025
20 | SCCGCGFGLLFC | 0.73 ± 0.018 | 0.731 ± 0.011 | 0.807 ± 0.0017 | 0.631 ± 0.023 | 0.7812 ± 0.0002 | 0.643 ± 0.032 | 0.632 ± 0.016 | 0.7399 ± 0.0056
